According to the supplement of paper PMC9170038:

Tested on: K4 kissing-loop RNA reporter
Assay: apparent KD of K4 kissing-loop reporter; higher = weaker reporter binding
Conditions: Eterna round: R107
Experimental: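 RNA-MaP round R107: designed RNA switches with theophylline, tryptophan, arginine or FMN aptamers are transcribed on-chip within common flanks. They are titrated with a labelled K4 kissing-loop RNA reporter in RNA-MaP buffer (100 mM Tris pH 7.5, 80 mM KCl, 4 mM MgCl2), without ligand or with the indicated ligand. Median apparent KD per design.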

[1] = input ligand: theophylline 20 uM
[2] = input ligand: tryptophan 2.4 mM
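Further: bound reporter read as fluorescence of individual clusters on recovered sequencing chips by microscopy, with normalized cluster intensities fitted with a binding model.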

| Sequence | apparent KD of K4 kissing-loop reporter (input ligand: FMN 200 uM) [nM] | apparent KD of K4 kissing-loop reporter (input ligand: arginine 13.2 mM) [nM] | apparent KD of K4 kissing-loop reporter (input ligand: none) [nM] | apparent KD of K4 kissing-loop reporter [1] [nM] | apparent KD of K4 kissing-loop reporter [2] [nM] |
| --- | --- | --- | --- | --- | --- |
| AGUGGACAUGUCUAGAGUGAUGUUCUGGAUACCAGACACGAAAGUGUCCCUUGGCAGCCGGAGUGAUGUUCUGGCGUUCACUAAA [Omei KL Theo A Exc B v7] | 476 | 267 | 405 | 414 | 341 |
| AGUUAUGUUGCGGCCGCCACUGCGCGAGUGAUGUUCGUGGCAUAUAUAAUGUUAUAUAUGCAUCACAGGACCGGGCGGCAUAGCG [Same State - Tryptophan B] | 512 | 313 | 375 | 329 | 152 |
| AGUUUAUAGGAGGAUACCAGUACGGAUAAGGUACGUUAAUAGUAGAGUGAUGUUCUAAAGUACCCUUGGCAGCUUAGAUUGAGUU [#27 K4 Theophylline B Exclusion] | 110 | 171 | 130 | 133 | 101 |
| AUAACAAUCUGAAGGAGCGAGAAAGCAGUGAUGUUGCAAAGGCGAGUGAUGUUCGCAAUAACUCAGGUAGGUCGCAGAAACAAGA [Same State Arginine B] | 142 | 142 | 187 | 193 | 119 |
| AUACACGUUGCGGCCGCCACUUCGAUUAGUGAUGUUAGGUGUAAGCAGGCGCUGCAUUAAUGUGAAAGGACCGGGCAGAGUAAGC [theeternabot_exclusion_KL_Trp_B_39] | 203 | 114 | 160 | 206 | 148 |
| AUACGUUUAAGUGAUACCAGACAUGUGAGUGAUGUUUACAAAUAAAUUAAAUUUUUAGCUGUCCCUUGGCAGCACAGUUUAUUUA [JR_ExcTheophyB_Sub002] | 516 | 517 | 594 | 610 | 430 |
| AUAGAAAAGUGGCACCCUCACUAAAACAGUCGAGGACCGGUACGGCCGCCACUCGCGCGCUUUAGUGAUGUUAAAGCUAUGCAAA | 407 | 358 | 380 | 407 | 105 |
| AUAUUGGUUGAGAGUGAUGUUCCUUGUGUUCGAGGACCGGUACGGCCGCCACUCGGGUAGAAAAUAAAAGAUAUGUUUGAUUUUU [BDazzled - #12 SS Tryptophan A] | 162 | 29.1 | 242 | 943 | 279 |
| AUAUUUAUUUAGUCACUUUUAAUAUUAUGUCAGGAUAUCGUAAUUUCGAGAAGGGACUCAUGCUAGUGAUGUUAGCUAAUUCUCA [JR_Nu3_ExcFMNA_Sub023] | 102 | 161 | 135 | 160 | 110 |
| AUCACAGUGAUGUUGUGAUAUGGUACAGAUACCAGACUAGUGCUAGUCCCUUGGCAGCUGUACUCAGCAGCACCACUAGCACUCG [Theo A Ex t6b] | 147 | 131 | 145 | 153 | 128 |
| AUGCCUCUGGCUGAUACCAGUGAUGCAGGGUAUGAGACAGGGAGUGAUGUUCCCUGCAGCCACCCUUGGCAGCAGUUUAAGUUUG [Exclusion Theophylline B GF 20] | 184 | 180 | 185 | 197 | 168 |
| AUGCGCGCGGCGGCCGCCACUCGCAUGAGAGUGAUGUUCUCACCGUGACCGUAAGGUCGCGGUGUGAGGACCGGGCCGGGCUGCG [#2 Same State - Tryptophan B Attempt #23 (HarryS)] | 28.4 | 72.7 | 245 | 281 | 118 |
| AUGCGCGCGGCGGCCGCCACUCGCAUGAGAGUGAUGUUCUCGCCGGGCCCGAAAGGGCCCGGUGUGAGGACCGGGCCGGGCUGCG [#2 Same State - Tryptophan B Attempt #15 (HarryS)] | 176 | 64.9 | 145 | 91.8 | 237 |
| AUGGUGGAUCAGUGAUGUUGGUGGAGUAGGUAGGAUAUGAGUGAUGUUAGAAGGAUCGGAGUGAUGUUCCAGGUGGUUGUGUUGU [KL-SSFMN-A3] | 540 | 302 | 548 | 516 | 389 |
| AUGUACACGAUAGUGUACUCCUAGUGAUGUUAGGAUAUGCAGAUAUGCAGAAGGAACAAGUCAUCUGACAAUAGUCGGAUGACAA [FmnAX 9 #OpenEnded #K4Early] | 388 | 92.5 | 119 | 125 | 94.1 |
| AUGUAUGAAUUAGGAUAUCGUGAGCCUUGCAUAUAUAUGAUAAAUGGAUAUGUCGUAGUGAUGUUACGAGAAGGAGUGUGGAGUA [KL-XFMN-B4] | 45 | 61.6 | 45.5 | 71.2 | 39.1 |
